From patent publication US20240425607A1, “IL-18BP ANTAGONIST ANTIBODIES AND THEIR USE IN MONOTHERAPY AND COMBINATION THERAPY IN THE TREATMENT OF CANCER” (Compugen Ltd., priority 2023, published 2024)
Where a chain is given by its changes, count along the chain named.

B1: ADI-71719: anti-IL18-BP antibody, sequences in FIG. 2B; 66670 lineage (antibody, V domains shown)
VH: QVQLVQSGAEVKKPGSSVKVSCKASGGTFNSYVISWVRQAPGQGLEWMGGIIPGAGTANYAQKFQGRVTITADESTSTAYMELSSLRSEDTAVYYCARGRHSHETWGQGTLVTVSS
VL: DIQMTQSPSSVSASVGDRVTITCRASQGISSWLAWYQQKPGKAPKLLIYAASSLQSGVPSRFSGSGSGTDFTLTISSLQPEDFATYYCQQVYSLPWTFGGGTKVEIK
B2: ADI-71755: anti-IL18-BP antibody, sequences in FIG. 2T (antibody, V domains shown)
VH: QLQLQESGPGLVKPSETLSLTCTVSGGSISSPDYPWGWIRQPPGKGLEWIGSIFYSGNTYYNPSLKSRVTISVDTSKNQFSLKLSSVTAADTAVYYCARGPFRQVFDYWGQGTLVTVSS
VL: B1 VL with V91G, Y92W, L94F, W96Y
B3: ADI-71663: anti-IL18-BP antibody, sequences in FIG. 2F; 66692 lineage (antibody, V domains shown)
VH: EVQLLESGGGLVQPGGSLRLSCAASGFTFGNTAMSWVRQAPGKGLEWVSAISANAGSTYYADSVKGRFTISRDNSKNTLYLQMNSLRAEDTAVYYCAKGPDRQVFDYWGQGTLVTVSS
VL: B1 VL with Q90H, V91A, Y92L, S93F, L94F, W96Y
B4: ADI-71744: anti-IL18-BP antibody, sequences in FIG. 2R (antibody, V domains shown)
VH: B2 VH with P32S, D33E, P35G, F54V, Y55N, N58S, F102Y
VL: B1 VL with V91G, Y92W, L94F, W96Y
B5: ADI-71728: anti-IL18-BP antibody, sequences in FIG. 2O; 66670 lineage (antibody, V domains shown)
VH: B1 VH with N30S, S31E, V33P, G54Y, A55S, N59V, S102G
VL: B1 VL with L94I
B6: ADI-71736: anti-IL18-BP antibody, sequences in FIG. 2L; 66716 lineage (antibody, V domains shown)
VH: B2 VH with P32S, D33E, P35G, F54V, Y55N, N58S, F102H
VL: B1 VL with L46H, V91G, Y92F, L94F, W96Y
B7: ADI-71741: anti-IL18-BP antibody, sequences in FIG. 2P (antibody, V domains shown)
VH: B2 VH with P32S, F54Y, N58S, F102Y
VL: B1 VL with V91G, Y92N, L94F, W96Y
B8: ADI-71753: anti-IL18-BP antibody, sequences in FIG. 2S (antibody, V domains shown)
VH: B2 VH with S30F, P32S, P35Y, G37S, S52V, F54A, N58S, V87A
VL: B1 VL with V91G, Y92S, L94F, W96Y
B9: ADI-71742: anti-IL18-BP antibody, sequences in FIG. 2Q (antibody, V domains shown)
VH: B2 VH with G8S, F102H
VL: B1 VL with V91G, Y92W, L94F, W96Y
B10: ADI-71720: anti-IL18-BP antibody, sequences in FIG. 2C; 66670 lineage (antibody, V domains shown)
VH: B1 VH with N30S, S31E
VL: B1 VL with S76G
B11: ADI-71710: anti-IL18-BP antibody, sequences in FIG. 2I; 66650 lineage (antibody, V domains shown)
VH: QVQLVQSGAEVKKPGASVKVSCKASGYTFGIYAMHWVRQAPGQRLEWMGWIHAGTGVTKYSQKFQGRVTITRDTSASTAYMELSSLRSEDTAVYYCARGLGEVGPTGTSWFDPWGQGTLVTVSS
VL: DIQMTQSPSTLSASVGDRVTITCRASQSISSWLAWYQQKPGKAPKLLIYEASSLESGVPSRFSGSGSGTEFTLTISSLQPDDFATYYCQQYRYSPFTFGGGTKVEIK
B12: ADI-71707: anti-IL18-BP antibody, sequences in FIG. 2M; 66650 lineage (antibody, V domains shown)
VH: B11 VH with G30R, I31H, V57N, K59L
VL: B11 VL with Y93L, S94G
B13: ADI-71701: anti-IL18-BP antibody, sequences in FIG. 2E; 66650 lineage (antibody, V domains shown)
VH: B11 VH with G30N, I31S, V57N
VL: B11 VL with S9P, Y93V, S94F

Experiments:
SEC-HPLC % monomer = format: physicochemical; settings: optimized antibodies
Experimental: A TSKgel SuperSW mAb HTP column (22855) was used for fast SEC analysis of mammalian produced mAbs at 0.4 mL/min with a cycle time of 6 min/run. 200 mM Sodium Phosphate and 250 mM Sodium Chloride was used as the mobile phase.

[1] = Fab Tm by dynamic scanning fluorimetry (DSF); format: physicochemical; settings: optimized antibodies
Experimental: 10 μL of 20× Sypro Orange is added to 20 μL of 0.2-1 mg/mL mAb or Fab solution. A RT-PCR instrument (BioRad CFX96 RT PCR) is used to ramp the sample plate temperature from 40 to 95° C. at 0.5° C. increment, with 2 min equilibrate at each temperature. The negative of first derivative for the raw data is used to extract Tm.

| Molecule | SEC-HPLC, % monomer (SEC-HPLC % monomer) | Fab Tm (DSF, ° C.) [1] |
| --- | --- | --- |
| B1 | 94.5% | 72.5 °C |
| B2 | 92.9% | 74.5 °C |
| B3 | 93.9% | 68.0 °C |
| B4 | 88.1% | 74.5 °C |
| B5 | 95.0% | 73.0 °C |
| B6 | 79.2% | 73.5 °C |
| B7 | 99.4% | 73.5 °C |
| B8 | 96.9% | 74.5 °C |
| B9 | 91.3% | 74.0 °C |
| B10 | 98.6% | 72.5 °C |
| B11 | 97.9% | 71.5 °C |
| B12 | 98.8% | 71.0 °C |
| B13 | 98.6% | 71.5 °C |
